# Literature values, collected in article PMC8569824.
# Biological target: Amyloid beta (1-40) Aβ 1-40 (Homo sapiens) (UniProt P05067)
# Assay: seed-dependent aggregation inhibition
# UniProt P05067, sequence (P05067 1-40): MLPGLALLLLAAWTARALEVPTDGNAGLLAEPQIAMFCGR
substance,measurement,value
L-PGDS (from UniProt P41222),Ki,0.75 µM
